PMC9495943, “Recombinant Expression of Archaeal Superoxide Dismutases in Plant Cell Cultures: A Sustainable Solution with Potential Application in the Food Industry” (Antioxidants, 2022)

Target: the molecule itself
Test: SEC; Superdex 200 calibrated with standard protein markers; 50 mM Tris-HCl pH 7.5, 50 mM NaCl; partially purified SOD (ultrafiltration retentate of transformed tomato cell extract) loaded; apparent native mass compared with the theoretical mass of a homodimer

B1: Superoxide dismutase (Mn/Fe-dependent SOD) from Saccharolobus solfataricus P2 (enzyme, UniProt P80857 1-211, looked up)
chain: MTLQIQFKKYELPPLPYKIDALEPYISKDIIDVHYNGHHKGYVNGANSLLERLEKVVKGDLQTGQYDIQGIIRGLTFNINGHKLHALYWENMAPSGKGGGKPGGALADLINKQYGSFDRFKQVFTETANSLPGTGWAVLYYDTESGNLQIMTFENHFQNHIAEIPIILILDEFEHAYYLQYKNKRADYVNAWWNVVNWDAAEKKLQKYLTK
notes: Mn/Fe-dependent superoxide dismutase of Saccharolobus solfataricus P2; whole CDS (636 bp) amplified from genomic DNA and expressed in tomato cells; subunit of approximately 24 kDa; ORF cloned into the NcoI-XbaI sites of pCK-EGFP, then into pBI121; No tag is mentioned; also called SODSs; sodSs product
- stoichiometry N: 2
